Source: patent US20110274691A1 (Amgen, published 2011)

T1: ferroportin peptide sequence ANIVPETSPES (residues 439-449 of SEQ ID NO: 16) (human)
T1 peptide: ANIVPETSPES

T2: ferroportin peptide Fc conjugate 5 (Peptide 5: AQNTLGNKLFACGPDAKEVRKENQANTSVV, amino acids 542-571 of SEQ ID … (human))
T2 construct: not shown: Fc moiety
T2 chain: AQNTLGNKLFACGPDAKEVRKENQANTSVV

T3: ferroportin peptide Fc conjugate 2 (Peptide 2: ITIQRDWIVVVAGEDRSKLANMNATIRRIDQL, amino acids 152-183 of SEQ … (human))
T3 construct: not shown: Fc moiety
T3 chain: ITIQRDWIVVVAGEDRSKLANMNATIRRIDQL

T4: human ferroportin (human, UniProt Q9NP59 1-571)
T4 sequence: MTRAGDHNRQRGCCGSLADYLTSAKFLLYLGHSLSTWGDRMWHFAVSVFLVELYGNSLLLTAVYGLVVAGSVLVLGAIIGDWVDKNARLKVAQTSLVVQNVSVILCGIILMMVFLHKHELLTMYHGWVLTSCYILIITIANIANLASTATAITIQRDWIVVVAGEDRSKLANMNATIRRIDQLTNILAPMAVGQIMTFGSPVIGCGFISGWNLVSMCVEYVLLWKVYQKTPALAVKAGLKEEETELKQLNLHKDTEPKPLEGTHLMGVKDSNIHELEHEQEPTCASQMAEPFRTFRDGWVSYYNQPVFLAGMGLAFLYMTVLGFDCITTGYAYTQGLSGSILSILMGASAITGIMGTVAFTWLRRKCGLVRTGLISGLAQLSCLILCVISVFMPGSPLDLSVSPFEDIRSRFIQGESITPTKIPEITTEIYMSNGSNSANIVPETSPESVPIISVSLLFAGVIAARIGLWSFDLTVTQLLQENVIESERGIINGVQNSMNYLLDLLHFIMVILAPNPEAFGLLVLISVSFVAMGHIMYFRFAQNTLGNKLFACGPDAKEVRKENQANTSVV

T5: ferroportin fragment AFLYMTVLGF (amino acids 315-324 of SEQ ID NO: 16) (human)
T5 construct: PepSpot array of overlapping 10-mers on cellulose membrane
T5 peptide: AFLYMTVLGF

T6: ferroportin-V5 (human, UniProt Q9NP59 1-571)
T6 sequence: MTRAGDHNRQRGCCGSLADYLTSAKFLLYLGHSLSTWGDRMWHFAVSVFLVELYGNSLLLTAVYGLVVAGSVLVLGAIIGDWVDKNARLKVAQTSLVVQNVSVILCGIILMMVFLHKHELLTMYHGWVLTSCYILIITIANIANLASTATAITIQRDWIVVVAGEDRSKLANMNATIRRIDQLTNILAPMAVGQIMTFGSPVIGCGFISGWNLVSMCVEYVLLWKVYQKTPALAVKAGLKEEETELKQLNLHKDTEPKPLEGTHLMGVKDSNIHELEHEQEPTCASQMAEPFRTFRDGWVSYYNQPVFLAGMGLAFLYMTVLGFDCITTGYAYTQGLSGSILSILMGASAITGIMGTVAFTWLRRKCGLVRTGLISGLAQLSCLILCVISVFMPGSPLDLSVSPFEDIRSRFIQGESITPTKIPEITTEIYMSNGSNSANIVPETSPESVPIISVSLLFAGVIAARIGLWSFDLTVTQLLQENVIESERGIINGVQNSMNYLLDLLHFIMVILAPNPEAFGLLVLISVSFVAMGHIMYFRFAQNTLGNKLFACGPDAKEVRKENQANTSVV

T7: ferroportin fragment SITPTKIPEI (amino acids 417-426 of SEQ ID NO: 16) (human)
T7 construct: PepSpot array of overlapping 10-mers on cellulose membrane
T7 peptide: SITPTKIPEI

T8: ferroportin fragment ITTEIYMSNGSNS (amino acids 426-438 of SEQ ID NO: 16) (human)
T8 construct: Stretch covered by several overlapping 10-mers of the PepSpot array; 13 residues as printed
T8 peptide: ITTEIYMSNGSNS

T9: ferroportin fragment RDGWVSYYNQ (amino acids 296-305 of SEQ ID NO: 16) (human)
T9 construct: PepSpot array of overlapping 10-mers on cellulose membrane
T9 peptide: RDGWVSYYNQ

T10: ferroportin fragment YHGWVLTSCY (amino acids 124-133 of SEQ ID NO: 16) (human)
T10 construct: PepSpot array of overlapping 10-mers on cellulose membrane
T10 peptide: YHGWVLTSCY

T11: ferroportin fragment TEIYMSNGSNSA (amino acids 428-439 of SEQ ID NO: 16) (human)
T11 construct: Stretch covered by several overlapping 10-mers of the PepSpot array; 12 residues as printed
T11 peptide: TEIYMSNGSNSA


What was measured:
[1] = target: T1, ferroportin peptide sequence …; experiment: binding to 7-10 amino acid peptides immobilized on cellulose membrane
Excerpt: None of the other ferroportin-binding antibodies bound appreciably to this peptide. The location of the 31A5 epitope was further narrowed by detecting binding to ferroportin peptides ranging in length from 7 to 10 amino acids immobilized on a cellulose membrane. […] Cysteine residue 326 of SEQ ID NO: 16 is located in a different extracellular loop from the loop containing the 31A5 epitope (i.e., loop 3 of FIG. 1A).

[2] = target: T2, ferroportin peptide Fc conjugate 5 …; experiment: Western blot of peptide-Fc conjugates
Experimental: (§1) 31A5 was then tested by Western analysis for its ability to recognize a panel of ferroportin peptide-Fc conjugates, where the peptide moiety was derived from different, non-overlapping regions of the ferroportin sequence. 500 ng of ferroportin peptide Fc conjugates 1-5 (Peptide 1: […], amino acids 75-96 of SEQ ID NO: 16; Peptide 2: […], amino acids 152-183 of SEQ ID NO: 16; Peptide 3: […], amino acids 330-338 of SEQ ID NO: 16; Peptide 4: […], amino acids 393-446 of SEQ ID NO: 16; and Peptide 5: […], amino acids: 542-571 of SEQ ID NO: 16) were run on a NuPAGE 4-12% gel, transferred to a nitrocellulose membrane and probed using […] 31A5 followed by an anti-mouse secondary antibody.

[3] = target: T3, ferroportin peptide Fc conjugate 2 …; experiment: Western blot of peptide-Fc conjugates
Experimental: as §1

human ferroportin = target: T4, human ferroportin; experiment: cell-based or functional assay
[4] = target: T5, ferroportin fragment AFLYMTVLGF (amino …); experiment: PepSpot peptide array, 1 ug/mL antibody
Excerpt: (§2) The PepSpot technique (Heiskanen et al., Virology, 262:321-332, 1999) was used to identify the binding epitopes on ferroportin for human antibodies 37A2, 37B9, 37C8, 37G8, 38A4, 38C8, 38D2, 38E3 and 38G6. Briefly, an array of overlapping 10-mer peptides was synthesized on a cellulose membrane by a solid phase peptide synthesis spotting method. These peptide sequences were derived from amino acids 1-571 of SEQ ID NO: 16. The array was then soaked in 0.05% Tween-20/PBS (PBS-T), blocked with 5% BSA in PBS-T for 3 hours at room temperature and subsequently washed three times with PBS-T. The prepared array was then incubated for 90 minutes at room temperature with 1 μg/mL solution of antibodies 37A2, 37B9, 37C8, 37G8, 38A4, 38C8, 38D2, 38E3 or 38G6 in 5% nonfat dry milk. After binding, the membrane was washed three times with PBS-T and subsequently incubated for 1 hour at room temperature with a goat anti-human light chain antibody conjugated to horseradish peroxidase diluted 1:50,000 in 5% nonfat dry milk. The membrane was then washed three times with PBS-T and any binding was determined using chemiluminescence detection on X-ray film.
(§3) Antibodies 37A2, 37B9, 37C8, 37G8, 38A4, 38C8, 38D2, 38E3 and 38G6 bound to epitopes within, overlapping or near loops 1, 2, 3 and 4 of the ferroportin sequence set forth in FIG. 1A.

ferroportin-V5 = target: T6, ferroportin-V5; experiment: cell-based or functional assay
[5] = target: T7, ferroportin fragment SITPTKIPEI (amino …); experiment: PepSpot peptide array, 1 ug/mL antibody
Excerpt: as §2, §3

[6] = target: T8, ferroportin fragment ITTEIYMSNGSNS …; experiment: PepSpot peptide array, 1 ug/mL antibody
Excerpt: as §2, §3

[7] = target: T9, ferroportin fragment RDGWVSYYNQ (amino …); experiment: PepSpot peptide array, 1 ug/mL antibody
Excerpt: as §2, §3

[8] = target: T10, ferroportin fragment YHGWVLTSCY (amino …); experiment: PepSpot peptide array, 1 ug/mL antibody
Excerpt: as §2, §3

[9] = target: T11, ferroportin fragment TEIYMSNGSNSA …; experiment: PepSpot peptide array, 1 ug/mL antibody
Excerpt: as §2, §3

Row | Binder | decreased intracellular concentration of iron (IRE beta-lactamase reporter, 293/Fpn/BLA cells, 36 nM hepcidin), IC50 (human ferroportin) | binding result [4] | preserved ferroportin activity (ferroportin-V5 fluorescence after 37 nM hepcidin), IC50 (ferroportin-V5) | other results
1 | anti-ferroportin antibody 31A5 (antibody, V domains shown, the ends of the mature chains (466, 239) are printed in CLM-00028; also called monoclonal 31A5; mouse anti-human ferroportin antibody) VH: QVQLQQSGAELARPGASVKLSCKASGYTFTSYGISWVKQRTGQGLEWIGEIYPRSGNAYYNEKFKVKATLTIDKSSSTAYMELRSLTSEDSAVYFCGGNYYWGQGTTLTVSS VL: not shown | 30 nM | – | – | binding result [1]: binds; binding result [2]: no binding; binding result [3]: no binding
2 | antibody 38E3 (antibody, V domains shown) VH: QVQLVQSGAEVKKPGSSVKVSCKASGYTLTGYYMHWVRQAPGQGLEWMGWINPHTGGKNYAQKFQGRVTLTRDTSISTAYMELNSLRSDDTAVYYCARDPSLSVTGPSFYYYGLDVWGQGTTVTVSS VL: not shown | 15 nM | binds | – | –
3 | antibody 37B9 (antibody, V domains shown) VH: QVQLVQSGAEVKKPGSSVKVSCKASGYTLTGYYMHWVRQAPGQGLEWMGWINPHTGGKNYAQRFQGRVTLTRDTSVNTAYMELNTLRSDDTAVYYCARDPSLVVTGPSFYYYGLDVWGQGTTVTVSS VL: not shown | 3.6 nM | binds | 0.2 nM | –
4 | antibody 37G8 (antibody, V domains shown) VH: QVQLVQSGAEVKKPGSSVKVSCKASGYTLTGYYMHWVRQAPGQGLEWMGWINPHTGGKNYAQKFQGRVTLTRDTSINTAYMELNTLRSDDTAVYYCARDPSLVVTGPSFYYYGLDVWGQGTTVTVSS VL: DIVMTQTPLSSPVTHGQPASISCRSSQSLVHSDGNTYLSWLQQRPGQPPRLLIYKISNRLSGVPDRFSGSGTGTDFTLKISRVEAEDVGVYVCMQATQFPWTFGQGTKVEIK | 1.6 nM | binds | 0.8 nM | –
5 | antibody 38C8 (antibody, V domains shown) VH: QVQLVQSGAEVKKPGSSVKVSCKASGYTLTGYYMHWVRQAPGQGLEWMGWINPHTGGKNYGQKFQGRVTLTRDTSINTAYMELNSLRSDDTAVYYCARDPSISVAGPSFYYFGLDVWGQGTTVTVSS VL: not shown | 0.9 nM | binds | 0.3 nM | –
6 | antibody 37C8 (antibody, V domains shown) VH: QVQLVQSGAEVKKPGSSVKVSCKASGYTLTGYYMHWVRQAPGQGLEWMGWINPHTGGKNYAQKFQGRVTLTRDTSINTAYMELNTLRSDDTAVYYCARDPSIAVAGPSFYYYGLDVWGQGTTVTVSS VL: not shown | 0.8 nM | binds | 0.2 nM | –

The next lines start with results.

Row | decreased intracellular concentration of iron (IRE beta-lactamase reporter, 293/Fpn/BLA cells, 36 nM hepcidin), IC50 (human ferroportin) | binding result [4] | preserved ferroportin activity (ferroportin-V5 fluorescence after 37 nM hepcidin), IC50 (ferroportin-V5) | Binder | other results
7 | 4.5 nM | – | 2.5 nM | antibody 37A2 (antibody, V domains shown) VH: QVQLVESGGGVVQPGRSLRLSCAASGFTFSGYGMHWVRQAPGRGLEWVAVIWPDGTNKYYADSVKGRFTISRDNSKNKLYLQMNSLRAEDTAVYYCARGGATAVFGMNVWGQGTTVTVSS VL: SYELTQPPSVSVSPGQTARITCSGDELPKQYAYWYQQKAGQAPVMVIHKDSERPSGIPERFSGSSAGTIVTLTISGVQAEDEADYYCQSPDSRRTVIFGGGTKLTVL | binding result [5]: binds
8 | 0.4 nM | – | 2.8 nM | antibody 38A4 (antibody, V domains shown) VH: EVQLLESGGGLVQPGGSLRLSCAASGFTFSSFAMTWVRQAPGKGLEWVSAIGGSGRNTYYADSVKGRFTISRDNSKNTLYLQMSSLRAEDTAVYYCAKEGAMARPPRGLDVWGQGTTVTVSS VL: not shown | binding result [6]: binds
9 | 10 nM | – | 5.4 nM | antibody 38D2 (antibody, V domains shown) VH: QVQLVQSGAEVKKPGASVKVSCKASGYTLTGYYLHWVRQAPGQELEWMGWINPFTGATDYAQKFQGRVTMTRDTSINTAHMELSRLRSDDTAVYYCARDPSLQNSYHYYVMDVWGQGTTVTVSS VL: not shown | binding result [7]: binds; binding result [8]: binds
10 | 4.3 nM | – | 1.9 nM | antibody 38G6 (antibody, V domains shown) VH: EVQVVESGGGLVQPGGSLRLSCAASGFTFSSYSVNWVRQAPGKGLEWVSYISGSSSTVHYADSVKGRFTISRDTAKNSVYLQLNSLRDEDTALYYCARWGTRQGHYFGMDVWGQGTTVTVSS VL: QPVLTQPPSASASLGASVTLTCTLSSGYNNYKVDWFQQRPGRGPRFVMRVGTGGIVGSKGDGIPDRFSVLGSGLNRYLTIKNIQEEDESDYHCGADHASGNNFVYVFGTGTKVTVL | binding result [9]: binds
